Experimental data reported in publication PMC2064741 (The Journal of Cell Biology, 2007).
Read-outs that look alike come from different tables or passages of the source. Each block holds one binder with its values, some of them ahead of it.

Experiments:
[1] = biological target: T1, Capu-FH1FH2 (Drosophila Capu residues 467-1,058) (Drosophila, UniProt Q24120 467-1058); assay: co-sedimentation
T1 sequence: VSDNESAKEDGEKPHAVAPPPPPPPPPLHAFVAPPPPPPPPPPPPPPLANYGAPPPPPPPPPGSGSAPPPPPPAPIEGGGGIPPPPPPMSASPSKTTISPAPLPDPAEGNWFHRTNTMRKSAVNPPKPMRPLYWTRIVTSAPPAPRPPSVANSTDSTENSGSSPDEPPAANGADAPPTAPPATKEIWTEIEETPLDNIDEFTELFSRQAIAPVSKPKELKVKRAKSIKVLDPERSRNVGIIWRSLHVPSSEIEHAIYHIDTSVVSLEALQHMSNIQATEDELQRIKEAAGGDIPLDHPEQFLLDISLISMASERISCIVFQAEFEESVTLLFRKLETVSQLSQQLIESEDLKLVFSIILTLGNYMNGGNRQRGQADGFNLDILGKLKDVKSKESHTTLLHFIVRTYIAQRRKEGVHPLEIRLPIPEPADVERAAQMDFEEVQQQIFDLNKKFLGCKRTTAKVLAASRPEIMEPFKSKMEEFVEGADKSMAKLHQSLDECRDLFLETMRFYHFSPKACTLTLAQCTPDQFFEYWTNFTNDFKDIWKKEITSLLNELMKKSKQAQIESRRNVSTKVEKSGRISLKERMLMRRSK

[2] = biological target: the molecule itself; assay: AUC
[3] = biological target: T1, Capu-FH1FH2 (Drosophila Capu residues …); assay: other fluorescence titration
[4] = biological target: T2, Fmn2-FH2 (formin-2 residues 1,124-1,567) ( (printed as m-Fmn2, …, UniProt Q9JL04 1135-1578)); assay: fluorescence polarisation
[5] = biological target: T2, Fmn2-FH2 (formin-2 residues 1,124-1,567); assay: inhibition of formin-driven pyrene-actin assembly
[6] = biological target: T3, Capu-FH2 (Drosophila Capu residues 573-1,058) (Drosophila, UniProt Q24120 573-1058); assay: inhibition of formin-driven pyrene-actin assembly
T3 sequence: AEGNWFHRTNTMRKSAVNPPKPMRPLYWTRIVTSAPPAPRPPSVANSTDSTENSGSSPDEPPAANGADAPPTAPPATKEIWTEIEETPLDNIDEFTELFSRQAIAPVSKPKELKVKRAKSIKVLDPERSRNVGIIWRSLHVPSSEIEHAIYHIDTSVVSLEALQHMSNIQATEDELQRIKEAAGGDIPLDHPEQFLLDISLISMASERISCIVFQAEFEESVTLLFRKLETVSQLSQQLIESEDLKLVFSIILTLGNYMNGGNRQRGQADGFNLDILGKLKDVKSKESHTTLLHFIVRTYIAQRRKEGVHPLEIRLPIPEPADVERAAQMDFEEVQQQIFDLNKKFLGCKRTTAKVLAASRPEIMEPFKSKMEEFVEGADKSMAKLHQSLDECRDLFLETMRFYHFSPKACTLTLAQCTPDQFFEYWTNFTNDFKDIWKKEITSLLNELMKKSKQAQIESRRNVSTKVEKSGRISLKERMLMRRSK

[7] = biological target: T1, Capu-FH1FH2 (Drosophila Capu residues …); assay: fluorescence polarisation
[8] = biological target: T1, Capu-FH1FH2 (Drosophila Capu residues …); assay: fluorescence polarisation; remark: listed apart in the source
[9] = biological target: T3, Capu-FH2 (Drosophila Capu residues …); assay: fluorescence polarisation
[10] = biological target: phalloidin-stabilized actin filaments; assay: co-sedimentation
[11] = biological target: phalloidin-stabilized actin filaments; assay: co-sedimentation; remark: listed apart in the source

T2 sequence (Q9JL04 1135-1578): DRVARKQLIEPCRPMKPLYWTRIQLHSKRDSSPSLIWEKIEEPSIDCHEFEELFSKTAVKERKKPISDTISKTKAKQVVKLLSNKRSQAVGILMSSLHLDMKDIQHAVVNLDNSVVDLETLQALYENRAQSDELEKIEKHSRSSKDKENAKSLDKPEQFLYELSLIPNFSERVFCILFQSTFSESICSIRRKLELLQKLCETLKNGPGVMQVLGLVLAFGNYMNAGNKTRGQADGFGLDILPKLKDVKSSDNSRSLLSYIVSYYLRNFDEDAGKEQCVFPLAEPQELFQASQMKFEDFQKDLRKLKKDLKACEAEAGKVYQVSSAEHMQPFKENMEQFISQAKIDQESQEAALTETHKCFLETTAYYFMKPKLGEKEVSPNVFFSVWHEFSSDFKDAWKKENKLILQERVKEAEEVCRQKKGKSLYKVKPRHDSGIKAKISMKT

binding result [1]: binds
B1: NTSpir (Drosophila Spir residues 1-520) (domain or fragment)
chain: MTEHQAEEQADTPPTKVKATPTPTPSGKFKDAKEDAFLSTSPDSANGDAQHKLPADQLAMSSSAHPQQAGQARPLILQAFHRCSSPEQCVTLHDILDSFKAPLSEDQAWALIHQFAGLYHQVAVQAHTCAADYEAALPTGFELHFHRDGSVHFSGPDQLTPKEQLQQEQIPLPPQHDVIVDQPDHSASSSGDSSVINRAFDNSNHHHHHQHHHPPLVVSHRKIISELAEIVYTALDYNLPEDEECQVSQELENLFNFMTADETDDDCIDEGIDEGDKRWDDESEEERNDTKELEHIIETCRNHIKTTLPENHYRAVCRALVTETIELRVFLQQVLNNEAGAEKLIKASESSATTQQELAKLGFNDWARFWVQVIDELRRGVRLKKSNHERTPIEYELTPYEILMGDIRAKKYQLRKVMVNGDIPPRVKKDAHAMILEFIRSRPPLKKASDRQLGPPRMCEPSPREQLMESIRKGKELKQITPPEAPTLRERVLPSANSTLSRSRQRLIKVDFSKFQDDDL

B2: AlexaFluor488-labeled Capu-FH1FH2 with C-terminal Lys-Cys-Lys (domain or fragment)
chain: VSDNESAKEDGEKPHAVAPPPPPPPPPLHAFVAPPPPPPPPPPPPPPLANYGAPPPPPPPPPGSGSAPPPPPPAPIEGGGGIPPPPPPMSASPSKTTISPAPLPDPAEGNWFHRTNTMRKSAVNPPKPMRPLYWTRIVTSAPPAPRPPSVANSTDSTENSGSSPDEPPAANGADAPPTAPPATKEIWTEIEETPLDNIDEFTELFSRQAIAPVSKPKELKVKRAKSIKVLDPERSRNVGIIWRSLHVPSSEIEHAIYHIDTSVVSLEALQHMSNIQATEDELQRIKEAAGGDIPLDHPEQFLLDISLISMASERISCIVFQAEFEESVTLLFRKLETVSQLSQQLIESEDLKLVFSIILTLGNYMNGGNRQRGQADGFNLDILGKLKDVKSKESHTTLLHFIVRTYIAQRRKEGVHPLEIRLPIPEPADVERAAQMDFEEVQQQIFDLNKKFLGCKRTTAKVLAASRPEIMEPFKSKMEEFVEGADKSMAKLHQSLDECRDLFLETMRFYHFSPKACTLTLAQCTPDQFFEYWTNFTNDFKDIWKKEITSLLNELMKKSKQAQIESRRNVSTKVEKSGRISLKERMLMRRSKKCK
modifications: AlexaFluor488-maleimide on the cysteine of the C-terminal Lys-Cys-Lys (~100% labeled)
stoichiometry N [2]: 2

Kd [3]: 2400 ± 900 nM
B3: AlexaFluor488-labeled WH2 cluster, KCK-WH2(C459S) (Drosophila Spir residues 366-482) (domain or fragment)
chain: KCKWARFWVQVIDELRRGVRLKKSNHERTPIEYELTPYEILMGDIRAKKYQLRKVMVNGDIPPRVKKDAHAMILEFIRSRPPLKKASDRQLGPPRMSEPSPREQLMESIRKGKELKQITP
modifications: AlexaFluor488-maleimide on the cysteine of the N-terminal Lys-Cys-Lys (~100% labeled)

Kd [4]: 300 ± 60 nM
B4: AlexaFluor488-labeled Spir-1–KIND (human Spir-1 residues 2-271) (domain or fragment)
chain: AQAAGPAGGGEPRTEAVGGEGPREPGAAGGAAGGSRDALSLEEILRLYNQPINEEQAWAVCYQCCGSLRAAARRRQPRHRVRSAAQIRVWRDGAVTLAPAADDAGEPPPVAGKLGYSQCMETEVIESLGIIIYKALDYGLKENEERELSPPLEQLIDHMANTVEADGSNDEGYEAAEEGLGDEDEKRKISAIRSYRDVMKLCAAHLPTESDAPNHYQAVCRALFAETMELHTFLTKIKSAKENLKKIQEMEKSDESSTDLEELKNADWAR

Ki [5]: 190 ± 40 nM
B5: Spir-1–KIND (human Spir-1 residues 2-271), unlabeled (domain or fragment)
chain: B4 chain

Ki [6]: 5 ± 1 nM
Kd [7]: 5 ± 3 nM
B6: KIND (Drosophila Spir residues 1-327), unlabeled (domain or fragment)
chain: MTEHQAEEQADTPPTKVKATPTPTPSGKFKDAKEDAFLSTSPDSANGDAQHKLPADQLAMSSSAHPQQAGQARPLILQAFHRCSSPEQCVTLHDILDSFKAPLSEDQAWALIHQFAGLYHQVAVQAHTCAADYEAALPTGFELHFHRDGSVHFSGPDQLTPKEQLQQEQIPLPPQHDVIVDQPDHSASSSGDSSVINRAFDNSNHHHHHQHHHPPLVVSHRKIISELAEIVYTALDYNLPEDEECQVSQELENLFNFMTADETDDDCIDEGIDEGDKRWDDESEEERNDTKELEHIIETCRNHIKTTLPENHYRAVCRALVTETIEL

Kd [8]: 1 ± 2 nM
Kd [9]: 9 ± 6 nM
B7: AlexaFluor488-labeled KIND (Drosophila Spir residues 1-327) (domain or fragment)
chain: B6 chain

Kd [10]: 6 nM
Kd [11]: 7 nM
B8: Capu-FH1FH2 (Drosophila Capu residues 467-1,058) (domain or fragment)
chain: T1 sequence
